This is an account of results in publication PMC6221947 (Structure (London, England : 1993), 2018).

Substrate in data set [1]: NC(=O)c1ccc[n+]([C@@H]2O[C@H](COP(=O)(O)OP(=O)(O)OC[C@H]3O[C@@H](n4cnc5c(N)ncnc54)[C@H](O)[C@@H]3O)[C@@H](O)[C@H]2O)c1
Nature of the data set: purified protein. Type of data set: biochemical, Trypanosoma brucei. Particulars: 78 μM [14C]spermidine, 15 μM TbeIF5A, 5 nM DHS; varied: cofactor.

Substrate in data set [2]: NCCCCNCCCN
Briefly: purified protein. The conditions noted are these: 1 mM NAD+, 15 μM TbeIF5A, 5 nM DHS; labelled compound. The class given is biochemical, Trypanosoma brucei.

Data set [3] deals with T1, Trypanosoma brucei deoxyhypusine synthase, catalytic paralog (TbDHSc), His-SUMO tag removed (T. brucei, UniProt Q38BX0 1-461).
T1 sequence: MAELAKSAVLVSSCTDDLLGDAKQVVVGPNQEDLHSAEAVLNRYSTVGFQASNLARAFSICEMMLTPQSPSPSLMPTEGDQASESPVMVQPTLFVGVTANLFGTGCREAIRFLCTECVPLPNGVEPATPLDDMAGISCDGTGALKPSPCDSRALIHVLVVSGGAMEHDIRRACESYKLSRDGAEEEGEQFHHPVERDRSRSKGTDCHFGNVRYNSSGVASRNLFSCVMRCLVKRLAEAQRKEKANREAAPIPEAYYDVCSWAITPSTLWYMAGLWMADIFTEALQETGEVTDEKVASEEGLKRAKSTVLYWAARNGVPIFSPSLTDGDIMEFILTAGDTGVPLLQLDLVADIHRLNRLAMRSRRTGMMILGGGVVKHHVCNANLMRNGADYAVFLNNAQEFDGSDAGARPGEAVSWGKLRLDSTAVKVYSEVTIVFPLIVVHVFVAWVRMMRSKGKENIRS
Nature of the data set: crystal structure.

B1: TbDHSc:DHSp (Trypanosoma brucei brucei TREU927) (protein)
chain 1: MAELAKSAVLVSSCTDDLLGDAKQVVVGPNQEDLHSAEAVLNRYSTVGFQASNLARAFSICEMMLTPQSPSPSLMPTEGDQASESPVMVQPTLFVGVTANLFGTGCREAIRFLCTECVPLPNGVEPATPLDDMAGISCDGTGALKPSPCDSRALIHVLVVSGGAMEHDIRRACESYKLSRDGAEEEGEQFHHPVERDRSRSKGTDCHFGNVRYNSSGVASRNLFSCVMRCLVKRLAEAQRKEKANREAAPIPEAYYDVCSWAITPSTLWYMAGLWMADIFTEALQETGEVTDEKVASEEGLKRAKSTVLYWAARNGVPIFSPSLTDGDIMEFILTAGDTGVPLLQLDLVADIHRLNRLAMRSRRTGMMILGGGVVKHHVCNANLMRNGADYAVFLNNAQEFDGSDAGARPGEAVSWGKLRLDSTAVKVYSEVTIVFPLIVVHVFVAWVRMMRSKGKENIRS
chain 2: MSGVPFPSRVIGDLDYSNLLNIGQEEAIRCVLNAYPNIGLEATNLGRARRIVQRALNDNGMDGNKVMLAYTSNLISSGLRDTFACLARENRIGAVVTTAGGVEEDVIKCLGDTLVGDFALNDHALRNNGLNRVGNLLVPNDNYRNFEDFFVPLLRRLHEQQRDSRWTTKTTPSQIIAEIGAALESVRPNDCGSSLIYWCYRNDIPVFSPAFTDGSMGDMIYFYNYSRKGLVVDPVPDVRRLRQLGCKSTNVGRITCIVLGAGLPKHHLLRNVQADAVVYVTTGSDADGCESSCNVMADRANGLLSPNCDVVRVHGDATIISPLLLLRSSDGKEKVGVREDGN
In the case of B1, in “purified protein [1]”, the Michaelis-Menten constant (Km) was 1.3 ± 0.18 µM and the kcat was found to be 0.15 ± 0.0045 s⁻¹. In the data set “purified protein [2]”, the Km stood at 9.8 ± 1.2 µM and the kcat worked out at 0.18 ± 0.01 s⁻¹.

B2: Trypanosoma brucei deoxyhypusine synthase prozyme paralog (TbDHSp), untagged (natural protein, T. brucei, UniProt Q4GZD1 1-342, looked up)
chain: MSGVPFPSRVIGDLDYSNLLNIGQEEAIRCVLNAYPNIGLEATNLGRARRIVQRALNDNGMDGNKVMLAYTSNLISSGLRDTFACLARENRIGAVVTTAGGVEEDVIKCLGDTLVGDFALNDHALRNNGLNRVGNLLVPNDNYRNFEDFFVPLLRRLHEQQRDSRWTTKTTPSQIIAEIGAALESVRPNDCGSSLIYWCYRNDIPVFSPAFTDGSMGDMIYFYNYSRKGLVVDPVPDVRRLRQLGCKSTNVGRITCIVLGAGLPKHHLLRNVQADAVVYVTTGSDADGCESSCNVMADRANGLLSPNCDVVRVHGDATIISPLLLLRSSDGKEKVGVREDGN
On to B2, for which, in data set [3], the binding result is recorded as “binds”.

Broadly, the Km is the substrate concentration at which the rate is half of its maximum. The term kcat denotes the number of substrate molecules converted per active site and unit of time at saturation.
